This passage reports fold less Aß bound than by fHSA monomers and stoichiometry N (HSA molecules) results from publication doi:10.1101/2022.05.03.490418.

In experiment [1] the target is aged human serum albumin (human) (UniProt P02768). Briefly: SEC + ELISA. (An ELISA detects its analyte on a solid surface through an enzyme-linked reagent.)
Experiment [2] addresses aged human serum albumin aggregates (human) (UniProt P02768). The experiment is described as follows: SEC + ELISA.
Experiment [3] addresses aged human serum albumin (human) (UniProt P02768). The experiment is described as follows: SEC. Background: SEC sorts molecules by how far they enter the pores of the column.

As for amyloid beta peptide 1-42, the fold less Aß bound than by fHSA monomers in experiment [1] came out at 4 times less; in experiment [2], 12 times less.
“aged human serum albumin (from UniProt P02768 25-609) (natural protein)”: the stoichiometry N (HSA molecules) in experiment [3] stood at 8.
